Assay results published in patent US20060039900A1 (Janssen / Centocor, published 2006).

T1: murine tissue factor from murine brain extracts (murine, UniProt P20352 29-294)
T1 sequence (looked up): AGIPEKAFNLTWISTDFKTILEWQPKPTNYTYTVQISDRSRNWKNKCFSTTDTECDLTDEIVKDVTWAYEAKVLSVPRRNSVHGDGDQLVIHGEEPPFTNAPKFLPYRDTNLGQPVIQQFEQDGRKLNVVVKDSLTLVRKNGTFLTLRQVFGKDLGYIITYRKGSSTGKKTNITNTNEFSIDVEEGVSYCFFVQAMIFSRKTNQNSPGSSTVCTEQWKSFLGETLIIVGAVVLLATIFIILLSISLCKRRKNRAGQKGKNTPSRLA

T2: murine tissue factor on B6F10 melanoma cells (murine, UniProt P20352 29-294)
T2 construct: whole, on cells; also called cell-associated mTF
T2 sequence (looked up): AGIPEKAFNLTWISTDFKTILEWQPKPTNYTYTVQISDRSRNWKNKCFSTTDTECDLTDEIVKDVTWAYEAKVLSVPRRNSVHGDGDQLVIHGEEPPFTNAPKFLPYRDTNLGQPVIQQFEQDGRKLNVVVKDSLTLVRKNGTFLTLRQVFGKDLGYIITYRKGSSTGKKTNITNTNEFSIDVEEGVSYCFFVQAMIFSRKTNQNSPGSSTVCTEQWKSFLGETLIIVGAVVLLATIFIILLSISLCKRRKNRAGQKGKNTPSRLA


What was measured:
[1] = biological target: T1, murine tissue factor from murine brain …; test: cell-based or functional assay
[2] = biological target: T2, murine tissue factor on B6F10 melanoma …; test: flow cytometry (FACS) on B6F10 melanoma cells expressing mTF

Row | Binder | EC50 Conc. (ug/ml) for human plasma (inhibition of fibrin clot formation, murine brain extracts as source of mTF) [1] [µg/mL] | EC50 [2] [nM]
1 | PHD103 Fab (Fab, V domains shown) VH: QVQLVQSGAEVKKPGESLKISCKGSGYSFSNSWIAWVRQMPGKGLEWMGGIIGPGHSYTKYSPSFQGQVTISADKSISTAYLQWSSLKASDTAMYYCARINMGYFDYWGQGTLVTVSS VL: DIELTQPPSVSVAPGQTARISCSGDSLGLKKFVSWYQQKPGQAPVLVIYDDSNRPSGIPERFSGSNSGNTATLTISGTQAEDEADYYCGTYDQTIGHDVVFGGGTKLTVLG | 63.3 | –
2 | PHD104 Fab (Fab, V domains shown) VH: QVQLVQSGAEVKKPGESLKISCKGSYSFTSNWIGWVRQMPGKGLEWMGWIYPSDSMTRYSPSFQGQVTISADKSISTAYLQWSSLKASDTAMYYCARYLFGLFDNWGQGTLVTVSS VL: DIELTQPPSVSVAPGQTARISCSGDNLGSYYVSWYQQKPGQAPVLVIYNDNNRPSGIPERFSGSNSGNTATLTISGTQAEDEADYYCATYDSSTDVFGGGTKLTVLG | 23.8 | –
3 | PHD126 Fab (Fab, V domains shown) VH: QVQLVQSGAEVKKPGESLKISCKGSYSFSNYWIGWVRQMPGKGLEWMGFIDPDDSDTNYSPSFQGQVTISADKSISTAYLQWSSLKASDTAMYYCARALYMQGGSFDSWGQGTLVTVSS VL: DIELTQPPSVSVAPGQTARISCSGDNLGSYYVSWYQQKPGQAPVLVIYRDTDRPSGIPERFSGSNSGNTATLTISGTQAEDEADYYCQSYDYGVSNQVFGGGTKLTVLG | 0.23 | –
4 | PHD127 Fab (Fab, V domains shown, Human Fab from the HuCAL library) VH: QVQLVQSGAEVKKPGESLKISCKGSYSFTNSWISWVRQMPGKGLEWMGIIDPDDSYTSYSPSFQGQVTISADKSISTAYLQWSSLKASDTAMYYCARGAGYGRMFGDVWGQGTLVTVSS VL: DIELTQPPSVSVAPGQTARISCSGDNLGSYYASWYQQKPGQAPVLVIYQDDNRPSGIPERFSGSNSGNTATLTISGTQAEDEADYYCGAYTYSTSWVFGGGTKLTVLG | 0.82 | 4.35
